How the values were obtained:
[1] = tested on: CD8+ T cell-depleted PBMC; experiment: IL-2 ELISpot of CD8+ T cell-depleted PBMC; type: cell-based, human; settings: day 8 of the culture
Description: (§1) Here, proliferation was assessed via [^3H]-Thymidine incorporation on days 5, 6, and 7. The order of samples (in triplicate) along the X-axis is media only, KLH, Exenatide, 0.3 nm SIRPα-Fc-CD40L, 3 nm SIRPα-Fc-CD40L, 30 nm SIRPα-Fc-CD40L and 300 nm SIRPα-Fc-CD40L. […] Here, proliferation was assessed by ELISpot. The order of samples (in triplicate) along the X-axis is media only, KLH, Exenatide, 0.3 nm SIRPα-Fc-CD40L, 3 nm SIRPα-Fc-CD40L, 30 nm SIRPα-Fc-CD40L and 300 nm SIRPα-Fc-CD40L.
(§2) The observation that SIRPα-Fc-CD40L stimulated CD40 signaling prompted investigation of other cellular functions that depend upon CD40 signaling. CD8+ T cell-depleted PBMC were isolated from a total of 33-50 different human donors and cultured in the presence of a dose-titration of hSIRPα-Fc-CD40L (FIG. 6A and FIG. 6B).

FcγR-IIb = target: T1, FcγR-IIb (Homo sapiens, UniProt P31994); experiment: SPR binding to FcγR-IIb; settings: surface plasmon resonance (SPR)
T1 sequence (P31994 43-310): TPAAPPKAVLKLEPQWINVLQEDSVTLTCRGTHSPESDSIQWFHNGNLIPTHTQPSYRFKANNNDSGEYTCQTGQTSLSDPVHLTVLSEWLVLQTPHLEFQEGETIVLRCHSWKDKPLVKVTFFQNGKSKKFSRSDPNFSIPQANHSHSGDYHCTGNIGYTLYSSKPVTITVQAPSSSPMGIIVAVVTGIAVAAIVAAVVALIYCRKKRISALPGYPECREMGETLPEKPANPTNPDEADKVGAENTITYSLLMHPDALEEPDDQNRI
Source text: (§3) The extracellular domain (ECD) of SIRPα and the ECD of CD40L were fused via an antibody Fc domain to generate SIRPαECD-Fc-CD40LECD chimeric proteins. When human proteins were used, the chimeric protein is referred to as hSIRPα-Fc-CD40L; when murine proteins were used, the chimeric protein is referred to as and mSIRPα-Fc-CD40L. Generically, the chimeric protein is referred to as SIRPα-Fc-CD40L. […] Mammalian cells were then transfected with the hSIRPα-Fc-CD40L expressing construct, and the secreted protein was purified from conditioned media by affinity chromatography. The purified protein was then analyzed for the presence of each individual domain by Western blotting using anti-SIRPα, anti-Fc, and anti-CD40L antibodies (FIG. 3A, bottom). […] The reduced and deglycosylated form of the protein migrated at the predicted monomeric molecular weight of 90.1 kDa. […] Next, binding affinities for SIRPα-Fc-CD40L to recombinant CD47, CD40, or Fc receptors were evaluated by surface plasmon resonance (SPR). […] Finally, to confirm that SIRPα-Fc-CD40L interacted with native CD47 and CD40 in a similar manner to recombinant CD47 and CD40, CHOK1-hCD47 and CHOK1-hCD40 reporter cell lines were developed (FIG. 3F). […] A functional ELISA evaluated whether SIRPα-Fc-CD40L could outcompete a commercially available single-sided SIRPα-Fc control for binding to recombinant CD47 (FIG. 3H).

[2] = Repeat-dose safety and activity study in cynomolgus macaques; type: in vivo; settings: intravenous infusion every week for five weeks, 0.1, 1, 10 and 40 mg/kg
Description: FIG. 21A-D is a graph showing cynomolgus macaques that were treated with vehicle, or 0.1, 1, 10, and 40 mg/kg of SIRPα-Fc-CD40L. Blood chemistry analysis assessed peripheral erythrocyte counts (FIG. 21A), hemoglobin levels (FIG. 21C), and hematocrit (FIG. 21B). In addition, the fold-change in lymphocyte count from pre-dose to 24 hours post-dose is shown (FIG. 21D).
The experiments of this example tested the safety and activity of the human SIRPα-Fc-CD40L chimeric protein following repeat doses in cynomolgus macaques. Briefly, naïve cynomolgus macaques were administered the human SIRPα-Fc-CD40L chimeric protein by intravenous infusion every week, for five consecutive weeks, at doses of 0.1, 1, 10 and 40 mg/kg. Standard hematology and clinical chemistry parameters were collected before and after each dose.
Receptor occupancy was evaluated on circulating CD40+ lymphocytes.

FcγR-Ia = FcγR-Ia (Homo sapiens, UniProt P12314); experiment: SPR binding to FcγR-Ia; settings: surface plasmon resonance (SPR)
Sequence of FcγR-Ia (P12314 16-374): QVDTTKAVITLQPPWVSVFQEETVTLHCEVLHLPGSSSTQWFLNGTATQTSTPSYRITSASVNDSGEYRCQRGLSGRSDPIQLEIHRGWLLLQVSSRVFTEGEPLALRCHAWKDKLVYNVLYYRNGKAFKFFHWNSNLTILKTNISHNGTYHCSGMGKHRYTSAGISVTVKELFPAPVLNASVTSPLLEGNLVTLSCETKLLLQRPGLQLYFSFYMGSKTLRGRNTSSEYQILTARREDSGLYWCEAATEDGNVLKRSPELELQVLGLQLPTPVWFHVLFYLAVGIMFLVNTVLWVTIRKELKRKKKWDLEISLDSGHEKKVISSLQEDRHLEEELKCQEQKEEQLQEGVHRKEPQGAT
Source text: Scale is shown and yellow arrows correspond with each identified monomer. A schematic of the hexamer species is shown to the right, depicting dimerization of the Fc domain and trimerization of the CD40L domain. […] Recombinant hSIRPα-Fc, hCD40L-Fc, and hIgG1 were used as positive controls. […] In both panels, the CHOK1 Parental is on the left and the CHOK1/hCD47 is on the right. […] For both graphs, the CHOK1 Parental is on the bottom. […] In this figure, the control is the top curve, the SIRPα-Fc-CD40L is the middle curve, and the anti-CD47 is the bottom curve.
The extracellular domain (ECD) of SIRPα and the ECD of CD40L were fused via an antibody Fc domain to generate SIRPαECD-Fc-CD40LECD chimeric proteins. When human proteins were used, the chimeric protein is referred to as hSIRPα-Fc-CD40L; when murine proteins were used, the chimeric protein is referred to as and mSIRPα-Fc-CD40L. […] The purified protein was then analyzed for the presence of each individual domain by Western blotting using anti-SIRPα, anti-Fc, and anti-CD40L antibodies (FIG. 3A, bottom). […] Next, binding affinities for SIRPα-Fc-CD40L to recombinant CD47, CD40, or Fc receptors were evaluated by surface plasmon resonance (SPR). […] A functional ELISA evaluated whether SIRPα-Fc-CD40L could outcompete a commercially available single-sided SIRPα-Fc control for binding to recombinant CD47 (FIG. 3H).

[3] = tested on: CD8+ T cell-depleted PBMC; experiment: Proliferation of CD8+ T cell-depleted PBMC ([3H]-thymidine); type: cell-based, human; settings: 0.3, 3, 30, or 300 nM; 7-day culture
Description: as §1, §2

FcγR-IIIb = FcγR-IIIb (Homo sapiens, UniProt O75015); experiment: SPR binding to FcγR-IIIb; settings: surface plasmon resonance (SPR)
Sequence of FcγR-IIIb (O75015 17-200): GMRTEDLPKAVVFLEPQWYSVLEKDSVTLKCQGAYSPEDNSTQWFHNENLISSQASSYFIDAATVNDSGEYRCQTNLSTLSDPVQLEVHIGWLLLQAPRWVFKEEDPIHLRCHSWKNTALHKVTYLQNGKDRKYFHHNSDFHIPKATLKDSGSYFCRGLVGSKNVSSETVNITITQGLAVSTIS
Source text: as §3

With “hSIRPα-Fc-CD40L: Chimeric protein: human SIRPα extracellular domain fused via an antibody Fc domain to human CD40L extracellular domain (SEQ ID NO: 60)” the “number of IL-2-secreting PBMC” value [1] was “dose-dependent increase in the number of IL-2-secreting PBMC”, the “binding to FcγR-IIb” value (FcγR-IIb) was “undetectable binding” and the hemolysis or thrombocytopenia [2] was “no evidence of hemolysis or thrombocytopenia”. For the same substance, the “binding to FcγR-Ia” value (FcγR-Ia) was “undetectable binding”, the “proliferation of human PBMC” value [3] was “dose-dependent proliferation of human PBMC” and the “binding to FcγR-IIIb” value (FcγR-IIIb) was “undetectable binding”.

Reference: US20200071380A1, “COMBINATION THERAPIES COMPRISING SIRP ALPHA-BASED CHIMERIC PROTEINS” (Shattuck Labs, Inc., priority 2018, published 2020)
